Data reported in patent US20240076389A1 (NATIONAL RESEARCH COUNCIL OF CANADA, published 2024).
One block for each binder: values may come before it.

Tests used:
[1] = molecular target: T1, cyAXL-ECD displayed on yeast; experiment: yeast surface display ELISA, non-denatured yeast, goat anti-human F(ab')2-HRP
T1 construct: extracellular domain; 'cy' read as cynomolgus

[2] = molecular target: T2, huMER-ECD displayed on yeast (human, UniProt Q12866 21-505); experiment: as above
T2 construct: extracellular domain
T2 sequence (looked up): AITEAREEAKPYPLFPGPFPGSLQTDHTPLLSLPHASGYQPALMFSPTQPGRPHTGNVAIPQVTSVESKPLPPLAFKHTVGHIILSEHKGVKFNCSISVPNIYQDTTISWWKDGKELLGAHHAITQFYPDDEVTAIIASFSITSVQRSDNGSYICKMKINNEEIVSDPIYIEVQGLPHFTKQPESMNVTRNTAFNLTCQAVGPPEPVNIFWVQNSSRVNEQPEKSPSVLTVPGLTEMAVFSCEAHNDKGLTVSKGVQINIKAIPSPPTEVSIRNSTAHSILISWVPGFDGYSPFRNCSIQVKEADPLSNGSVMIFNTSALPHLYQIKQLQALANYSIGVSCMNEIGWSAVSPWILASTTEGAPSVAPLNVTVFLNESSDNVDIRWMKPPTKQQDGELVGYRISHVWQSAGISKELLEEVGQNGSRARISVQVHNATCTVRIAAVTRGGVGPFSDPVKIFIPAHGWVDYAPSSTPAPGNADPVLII

[3] = molecular target: T3, huTyro3-ECD displayed on yeast (human, UniProt Q06418 41-429); experiment: as above
T3 construct: extracellular domain
T3 sequence (looked up): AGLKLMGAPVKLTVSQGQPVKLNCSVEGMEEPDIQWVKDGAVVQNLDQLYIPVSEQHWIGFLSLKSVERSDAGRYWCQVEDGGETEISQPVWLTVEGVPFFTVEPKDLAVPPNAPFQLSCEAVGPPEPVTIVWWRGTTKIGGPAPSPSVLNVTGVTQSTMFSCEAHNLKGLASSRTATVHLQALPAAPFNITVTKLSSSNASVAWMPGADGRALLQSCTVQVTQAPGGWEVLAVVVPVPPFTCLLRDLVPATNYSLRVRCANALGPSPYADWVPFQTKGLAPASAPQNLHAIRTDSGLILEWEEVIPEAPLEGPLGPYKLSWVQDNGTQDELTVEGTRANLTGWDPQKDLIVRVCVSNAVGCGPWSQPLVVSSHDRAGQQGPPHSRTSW

[4] = molecular target: T4, human AXL expressed on the cell surface of tumor cell lines (human, UniProt P30530 26-894); experiment: cell-based or functional assay
T4 sequence (looked up): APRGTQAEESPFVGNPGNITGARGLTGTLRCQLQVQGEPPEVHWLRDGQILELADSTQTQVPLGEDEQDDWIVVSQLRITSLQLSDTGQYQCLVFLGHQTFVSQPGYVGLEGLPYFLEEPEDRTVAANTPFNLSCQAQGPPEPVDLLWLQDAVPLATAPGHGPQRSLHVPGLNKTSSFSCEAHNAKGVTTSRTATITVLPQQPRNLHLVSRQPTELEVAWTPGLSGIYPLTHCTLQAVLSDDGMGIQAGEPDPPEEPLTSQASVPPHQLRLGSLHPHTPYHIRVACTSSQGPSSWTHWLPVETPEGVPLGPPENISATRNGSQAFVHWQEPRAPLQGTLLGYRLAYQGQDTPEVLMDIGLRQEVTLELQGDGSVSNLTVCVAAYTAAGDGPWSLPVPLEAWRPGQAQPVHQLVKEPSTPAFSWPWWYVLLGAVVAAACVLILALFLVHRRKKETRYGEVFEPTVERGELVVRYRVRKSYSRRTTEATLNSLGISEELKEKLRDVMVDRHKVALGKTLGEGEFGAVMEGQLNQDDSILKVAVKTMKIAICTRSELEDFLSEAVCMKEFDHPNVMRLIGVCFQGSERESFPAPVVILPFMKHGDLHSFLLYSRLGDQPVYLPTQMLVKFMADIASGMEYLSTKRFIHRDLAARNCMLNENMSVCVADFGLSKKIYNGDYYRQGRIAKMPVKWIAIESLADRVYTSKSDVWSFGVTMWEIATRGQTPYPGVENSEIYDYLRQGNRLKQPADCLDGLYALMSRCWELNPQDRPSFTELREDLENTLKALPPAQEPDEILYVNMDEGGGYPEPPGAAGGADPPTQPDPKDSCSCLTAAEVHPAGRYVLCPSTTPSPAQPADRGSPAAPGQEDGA

[5] = molecular target: T4, human AXL expressed on the cell surface …; experiment: cell-based or functional assay; remark: listed apart in the source
[6] = molecular target: T4, human AXL expressed on the cell surface …; experiment: FACS on SKOV3 cells, apparent Kd, human Fc format
Method: (§1) FACS binding assay. Adherent cells were dissociated with non-enzymatic Sigma Cell Dissociation Solution (Cat. No. C5789). Cells suspensions were added to polypropylene, V-bottom 96-well plates and incubated for 2 hours on ice with primary antibodies at concentrations ranging from 100 nM to 0.001 nM or at a single dose of 100 nM (for the non-specific control). After incubation and washes, cells were incubated with fluorescently labeled secondary antibody (Alexa Fluor® 488 anti-human IgG from Jackson Cat. No 709-546-098) for 1 hour on ice, then washed. Cell viability was determined using Fixable viability dye 450 (20 min on ice). Stained cells were fixed in 1% formaldehyde at 4° C. and stored at 4° C. until acquisition which was performed the next day.
(§2) Binding of recombinant chimeric Abs to three cell lines was assessed by FACS as described above. The apparent Bmax and Kd determination is shown below in Table 14.

[7] = molecular target: T5, mouse AXL extracellular domain (Sino cat. 51026-M08H) (mouse, UniProt Q00993 19-445); experiment: ELISA on coated mouse AXL ECD (100 ng/well), VHH-Fc
T5 construct: extracellular domain; Bought protein; also called mouse AXL ECD
T5 sequence (looked up): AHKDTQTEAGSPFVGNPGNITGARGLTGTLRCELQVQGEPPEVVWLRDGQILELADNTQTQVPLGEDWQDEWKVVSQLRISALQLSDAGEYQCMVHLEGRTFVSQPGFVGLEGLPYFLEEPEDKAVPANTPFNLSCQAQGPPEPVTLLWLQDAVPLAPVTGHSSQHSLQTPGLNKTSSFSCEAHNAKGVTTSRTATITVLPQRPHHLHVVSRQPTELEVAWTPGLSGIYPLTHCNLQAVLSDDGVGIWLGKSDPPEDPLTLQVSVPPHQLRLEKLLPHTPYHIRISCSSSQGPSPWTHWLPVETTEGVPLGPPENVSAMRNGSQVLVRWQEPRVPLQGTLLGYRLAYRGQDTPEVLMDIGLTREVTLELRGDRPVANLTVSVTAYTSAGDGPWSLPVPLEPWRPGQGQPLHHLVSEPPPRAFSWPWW
Method: (§3) ELISA. ELISAs against human, cyno and mouse AXL ECDs were conducted by immobilizing 100 ng of each protein in wells of Nunc MaxiSorp microplates overnight. Human AXL (aa 1-451) and cyno AXL (aa 1-449) were produced recombinantly as described in Example 10. Mouse AXL was purchased from Sino (cat. 51026-M08H). The next day, plates were blocked with 5% (w/v) dried milk in PBS. Murine mAbs (either hybridoma- or recombinantly-produced) or VHH-Fcs were diluted in PBS containing 1% BSA and 0.1% Tween-20 and added to wells for 2 hours at room temperature. Wells were washed 5× with PBS containing 0.1% Tween-20, then HRP-labeled protein A (diluted 1:1000 in PBS containing 1% BSA and 0.1% Tween™-20) was added to wells for 1 hour at room temperature. Wells were washed again 5× with PBS/0.1% Tween-20 and developed using TMB substrate. Absorbance was measured at 450 nm. As a positive control for mouse AXL binding, a commercial anti-mouse AXL mAb (clone 175128, R&D Systems MAB8541, rat IgG2A) was used and detected with donkey […] secondary antibody.

[8] = molecular target: T4, human AXL expressed on the cell surface …; experiment: FACS on NCI-H292 cells, apparent Kd, human Fc format
Method: as §1, §2

[9] = molecular target: T6, recombinant human AXL extracellular domain, C-terminally His8-tagged (rhAXL-ECD) (human, UniProt P30530 26-451); experiment: SPR, VHH-Fc captured, AXL ECD flowed, single-cycle kinetics
T6 construct: Made in CHO cells; also called (rh)AXL-ECD His8; human AXL ECD
T6 sequence: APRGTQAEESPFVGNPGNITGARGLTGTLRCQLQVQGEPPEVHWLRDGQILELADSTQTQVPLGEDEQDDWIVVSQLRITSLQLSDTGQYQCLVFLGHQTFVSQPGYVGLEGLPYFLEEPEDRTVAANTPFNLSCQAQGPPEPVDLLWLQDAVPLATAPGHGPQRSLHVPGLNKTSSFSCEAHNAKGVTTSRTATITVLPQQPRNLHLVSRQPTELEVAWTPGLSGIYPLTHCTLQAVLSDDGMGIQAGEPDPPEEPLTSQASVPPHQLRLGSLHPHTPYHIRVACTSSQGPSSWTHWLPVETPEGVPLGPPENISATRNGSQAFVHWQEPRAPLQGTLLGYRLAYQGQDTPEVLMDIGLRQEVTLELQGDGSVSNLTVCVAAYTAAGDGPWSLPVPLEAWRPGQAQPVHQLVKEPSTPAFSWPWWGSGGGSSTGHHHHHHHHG
Method: (§4) For VH Hs and VHH-Fcs, binding to human and cynomolgus AXL ECD was assessed using either a Biacore T200 instrument or a Biacore 3000 instrument. Either human AXL ECD or anti-human Fc antibody was immobilized on a research-grade CM5 series S sensor chip (T200, rhAXL ECD) or a C1 sensor chip (3000, anti-human Fc) using amine coupling in acetate buffer. VHH-Fcs were captured on anti-human Fc surfaces. Either monomeric VHHs (for rhAXL ECD surfaces) or human and cyno AXL ECD (for VHH-Fc surfaces) were flowed over the surfaces at different concentration ranges. Running buffers were HBS-EP (3000) and HBS-EP+(T200). Flow rates were 10-40 ul/min. All binding studies were performed at 25° C. Surfaces were regenerated using 10 mM glycine, pH 1.5.

[10] = molecular target: T6, recombinant human AXL extracellular …; experiment: ELISA on coated AXL ECD (100 ng/well), VHH-Fc, HRP-protein A
Method: as §3

[11] = molecular target: T4, human AXL expressed on the cell surface …; experiment: FACS on MDA-MB-231 luciferase cells, apparent Kd, human Fc format
Method: as §1, §2

[12] = molecular target: T6, recombinant human AXL extracellular …; experiment: SPR, VHH-Fc captured, AXL ECD flowed, single-concentration kinetics (estimate)
Method: as §4

yeast ELISA signal normalized to myc expression level [1]: 0.668 | yeast ELISA signal normalized to myc expression level [2]: -0.009 | yeast ELISA signal normalized to myc expression level [3]: -0.005
B1: NRC-sdAb003-Fc (VHH-human IgG1 Fc fusion) (Fc fusion)
chain: QVQLVESGGGLVQAGGSLRLSCAASGVTLDYTAIGWFRQAPGKERELVAAITSGGNTDYAESAKGRFRISRDNSKNTIYLQMNSLKPEDTGVYYCAARRGGARGEYDYWDQGTQVTVSS
notes: VHH fused N-terminally to human IgG1 Fc; also called NRC-sdAb0003-Fc; NRC-sdAb003-hIgG1; not shown: human IgG1 Fc

IC50 of growth inhibition (CellTiterGlo, 5 days) of NCI-H292 cells, -Gas6 [4]: 0.013 nM | IC50 of growth inhibition of NCI-H292 cells, +Gas6 (2 µg/mL) [4]: 0.46 nM | IC50 (read off the curve), growth inhibition of H292 cells, without added Gas6 (circles) [5]: ~0.004 nM
B2: hFc-F107-10G1-DM1 (antibody, human IgG1, kappa, V domains shown)
VH: EVNLVESGGGVVKPGASLKLSCEASGFTFSNYGMSWVRQTSDKRLEWVASISGGGGRTYYLDNVKGRFIISRENAKNTLYLQMSSLKSEDTALFYCARGARASYFAMDYWGQGSSVTVSS
VL: VIVMTQSHKFMSTSVGDRVSITCKASQDVTTAVAWYQQKPGQSPKLLIYWASTRHTGVPDRFTGSGSGTDYSLTISNVQTEDLAFYYCQQHFTTPLTFGAGTKLELKR
modifications: DM1 through SMCC linker on lysine residues; sites not given

Kd [6]: 0.0549 nM | binding result [7]: no binding | Kd [8]: 0.0414 nM | Kd [9]: 1 nM | koff [9]: 0.0033 s⁻¹ | kon [9]: 3.3e+06 M⁻¹ s⁻¹ | EC50 [10]: 1 nM | Kd [11]: 0.122 nM | Kd [12]: 2 nM | koff [12]: 0.0082 s⁻¹ | kon [12]: 5.3e+06 M⁻¹ s⁻¹
B3: NRC-sdAb008-Fc (VHH-human IgG1 Fc fusion) (Fc fusion)
chain: QVKLEESGGGLVQAGGSLRLSCAASGSSGMINTMGWYRQAPGKQRELVARRSTGGTTNYADSVKGRFTISRDDANNTVYLQMNSLKPEDTAVYYCAIIWRTSDLTGRFNTWGQGTQVTVSS
notes: VHH fused N-terminally to human IgG1 Fc; also called NRC-sdAb008-hIgG1; not shown: human IgG1 Fc

yeast ELISA signal normalized to myc expression level [1]: 0.76 | yeast ELISA signal normalized to myc expression level [2]: 0.01
B4: NRC-sdAb002-Fc (VHH-human IgG1 Fc fusion) (Fc fusion)
chain: QVQLVDSGGGLVQAGGSLRLSCATSTRTVSSAVMAWFRQAPEKVRDFVGFITNSGNILYDDSVKGRFTISRDNAQNTVYLQMNSLKPEDTAVYYCAAKWSFSSGYGDLRRAAMYDYWGQGTQVTVSS
notes: VHH fused N-terminally to human IgG1 Fc; also called NRC-sdAb0002-Fc; NRC-sdAb002-hIgG1; not shown: human IgG1 Fc
